Results published in patent US20160331662A1 (UAB RESEARCH FOUNDATION, published 2016).

T1: A3VP1^AgI/II (Streptococcus mutans UA159, UniProt P23504 386-874)
T1 construct: domain: A3VP1; also called A3VP1 of AgI/II
T1 sequence: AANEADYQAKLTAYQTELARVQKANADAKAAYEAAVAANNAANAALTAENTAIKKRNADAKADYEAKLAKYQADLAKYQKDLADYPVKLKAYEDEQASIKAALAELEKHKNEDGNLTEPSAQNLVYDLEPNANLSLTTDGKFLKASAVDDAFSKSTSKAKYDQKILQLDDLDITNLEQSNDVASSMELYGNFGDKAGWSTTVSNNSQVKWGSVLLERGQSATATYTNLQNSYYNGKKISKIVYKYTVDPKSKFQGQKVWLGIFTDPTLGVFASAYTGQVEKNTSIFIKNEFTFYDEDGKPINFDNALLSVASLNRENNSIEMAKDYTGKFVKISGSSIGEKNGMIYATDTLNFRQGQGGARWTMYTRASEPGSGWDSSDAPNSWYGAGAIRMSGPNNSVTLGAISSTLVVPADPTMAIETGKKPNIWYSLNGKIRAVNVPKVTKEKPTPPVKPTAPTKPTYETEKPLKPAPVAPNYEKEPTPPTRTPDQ

T2: C123^AgI/II (Streptococcus mutans UA159, UniProt P23504 1000-1486)
T2 construct: domain: C123
T2 sequence: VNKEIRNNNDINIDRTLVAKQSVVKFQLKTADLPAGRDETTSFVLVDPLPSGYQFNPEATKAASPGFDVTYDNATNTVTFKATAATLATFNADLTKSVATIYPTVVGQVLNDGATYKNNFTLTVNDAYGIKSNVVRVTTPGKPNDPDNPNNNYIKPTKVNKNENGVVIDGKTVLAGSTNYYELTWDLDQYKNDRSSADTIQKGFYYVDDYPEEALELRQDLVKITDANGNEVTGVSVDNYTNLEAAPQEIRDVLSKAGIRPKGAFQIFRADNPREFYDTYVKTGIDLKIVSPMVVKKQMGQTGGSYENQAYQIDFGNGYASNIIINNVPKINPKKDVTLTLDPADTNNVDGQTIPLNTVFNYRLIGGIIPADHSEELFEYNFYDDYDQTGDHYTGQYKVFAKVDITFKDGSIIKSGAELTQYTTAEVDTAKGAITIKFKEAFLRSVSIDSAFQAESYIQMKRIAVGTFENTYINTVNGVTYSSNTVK

B1: FL^SspB (S. gordonii DL1 SspB, residues 39-1433) (other)
chain: DEVTETTSTSTVEVATTGNPATNLPEAQGEMSQVAKESQAKAGSKESALPVEVSSADLDKAVADAKSAGVKVVQDETKDKGTATTATDNAQKQDEIKSDYAKQAEEIKTTTEAYKKEVAAHQAETDKINAENKAADDKYQKDLKSHQEEVEKINTANATAKAEYEAKLAQYQKDLATVKKANEDSQQDYQNKLSAYQTELARVQKANAEAKEAYEKAVKENTAKNEALKVENEAIKQRNETAKATYEAAMKQYEADLAAIKKANEDNDADYQAKLAAYQTELARVQKANAEAKEAYDKAVKENTAKNTAIQAENEAIKQRNETAKATYDAAVKKYEADLAAVKQANATNEADYQAKLAAYQTELARVQKANADAKATYEKAVEDNKAKNAAIKAENEEIKQRNAVAKTDYEAKLAKYEADLAKYKKEFAAYTAALAEAESKKKQDGYLSEPRSQSLNFKSEPNAIRTIDSSVHQYGQQELDALVKSWGISPTNPDRKKSRAYSYFNAINSNNTYAKLVLEKDKPVDVTYTGLKNSSFNGKKISKVVYTYTLKETGFNDGTKMTMFASSDPTVTAWYNDYFTSTNINVKVKFYDEEGQLMNLTGGLVNFSSLNRGNGSGAIDKDAIESVRNFNGRYIPISGSSIKIHENNSAYADSSNAEKSLGARWNTSEWDTTSSPNNWYGAIVGEITQSEISFNMASSKSGNIWFAFNSNINAIGVPTKPVAPTAPTQPMYETEKPLEPAPVAPSYENEPTPPVKTPDQPEPSKPEEPTYETEKPLEPAPVAPSYENEPTPPVKTPDQPEPSKPEEPNYETEKPLEPAPVAPSYENEPTPPVKIPDQPEPSKPEEPTYDPLPTPPLAPTPKQLPTPPVVPTVHFHYSSLLAQPQINKEIKNEDGVDIDRTLVAKQSIVKFELKTEALTAGRPKTTSFVLVDPLPTGYKFDLDATKAASTGFDTTYDEASHTVTFKATDETLATYNADLTKPVETLHPTVVGRVLNDGATYTNNFTLTVNDAYGIKSNVVRVTTPGKPNDPDNPNNNYIKPTKVNKNKEGLNIDGKEVLAGSTNYYELTWDLDQYKGDKSSKEAIQNGFYYVDDYPEEALDVRPDLVKVADEKGNQVSGVSVQQYDSLEAAPKKVQDLLKKANITVKGAFQLFSADNPEEFYKQYVATGTSLVITDPMTVKSEFGKTGGKYENKAYQIDFGNGYATEVVVNNVPKITPKKDVTVSLDPTSENLDGQTVQLYQTFNYRLIGGLIPQNHSEELEDYSFVDDYDQAGDQYTGNYKTFSSLNLTMKDGSVIKAGTDLTSQTTAETDATNGIVTVRFKEDFLQKISLDSPFQAETYLQMRRIAIGTFENTYVNTVNKVAYASNTVRTTTPIPRTPDKPTPIPTPKPKDP
notes: range 39-1433

How the values were obtained:
[1] = biological target: T3, iSRCR123 (human, UniProt Q9UGM3 102-463); test: SPR, analyte over immobilized iSRCR1; quantity and unit not printed beside the number, unit taken from the paragraph's 'nanomolar affinities'
T3 construct: domain: SRCR123; also called SRCRs; iSRCRs
T3 sequence (Q9UGM3 102-463 limits assumed): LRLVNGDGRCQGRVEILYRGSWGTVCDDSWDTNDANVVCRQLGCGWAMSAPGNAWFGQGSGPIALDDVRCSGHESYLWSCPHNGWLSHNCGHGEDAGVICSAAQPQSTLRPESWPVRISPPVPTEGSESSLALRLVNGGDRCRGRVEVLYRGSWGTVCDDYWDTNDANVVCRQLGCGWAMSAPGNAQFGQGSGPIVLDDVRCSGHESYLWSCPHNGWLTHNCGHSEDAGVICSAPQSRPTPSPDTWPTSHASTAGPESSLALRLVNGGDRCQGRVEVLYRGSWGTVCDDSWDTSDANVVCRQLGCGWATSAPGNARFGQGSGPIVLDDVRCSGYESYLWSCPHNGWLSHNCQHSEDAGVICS

[2] = biological target: T4, FL^AgI/II (S. mutans UA159 Antigen I/II, full length recombinant construct) (Streptococcus mutans UA159, UniProt P23504 39-1562); test: SPR, analyte over ligand immobilized on CM5 chip, 1:1 Langmuir model; SPR with calcium; immobilized iSRCR1, not deglycosylated
T4 construct: also called CG14
T4 sequence (P23504 39-1562): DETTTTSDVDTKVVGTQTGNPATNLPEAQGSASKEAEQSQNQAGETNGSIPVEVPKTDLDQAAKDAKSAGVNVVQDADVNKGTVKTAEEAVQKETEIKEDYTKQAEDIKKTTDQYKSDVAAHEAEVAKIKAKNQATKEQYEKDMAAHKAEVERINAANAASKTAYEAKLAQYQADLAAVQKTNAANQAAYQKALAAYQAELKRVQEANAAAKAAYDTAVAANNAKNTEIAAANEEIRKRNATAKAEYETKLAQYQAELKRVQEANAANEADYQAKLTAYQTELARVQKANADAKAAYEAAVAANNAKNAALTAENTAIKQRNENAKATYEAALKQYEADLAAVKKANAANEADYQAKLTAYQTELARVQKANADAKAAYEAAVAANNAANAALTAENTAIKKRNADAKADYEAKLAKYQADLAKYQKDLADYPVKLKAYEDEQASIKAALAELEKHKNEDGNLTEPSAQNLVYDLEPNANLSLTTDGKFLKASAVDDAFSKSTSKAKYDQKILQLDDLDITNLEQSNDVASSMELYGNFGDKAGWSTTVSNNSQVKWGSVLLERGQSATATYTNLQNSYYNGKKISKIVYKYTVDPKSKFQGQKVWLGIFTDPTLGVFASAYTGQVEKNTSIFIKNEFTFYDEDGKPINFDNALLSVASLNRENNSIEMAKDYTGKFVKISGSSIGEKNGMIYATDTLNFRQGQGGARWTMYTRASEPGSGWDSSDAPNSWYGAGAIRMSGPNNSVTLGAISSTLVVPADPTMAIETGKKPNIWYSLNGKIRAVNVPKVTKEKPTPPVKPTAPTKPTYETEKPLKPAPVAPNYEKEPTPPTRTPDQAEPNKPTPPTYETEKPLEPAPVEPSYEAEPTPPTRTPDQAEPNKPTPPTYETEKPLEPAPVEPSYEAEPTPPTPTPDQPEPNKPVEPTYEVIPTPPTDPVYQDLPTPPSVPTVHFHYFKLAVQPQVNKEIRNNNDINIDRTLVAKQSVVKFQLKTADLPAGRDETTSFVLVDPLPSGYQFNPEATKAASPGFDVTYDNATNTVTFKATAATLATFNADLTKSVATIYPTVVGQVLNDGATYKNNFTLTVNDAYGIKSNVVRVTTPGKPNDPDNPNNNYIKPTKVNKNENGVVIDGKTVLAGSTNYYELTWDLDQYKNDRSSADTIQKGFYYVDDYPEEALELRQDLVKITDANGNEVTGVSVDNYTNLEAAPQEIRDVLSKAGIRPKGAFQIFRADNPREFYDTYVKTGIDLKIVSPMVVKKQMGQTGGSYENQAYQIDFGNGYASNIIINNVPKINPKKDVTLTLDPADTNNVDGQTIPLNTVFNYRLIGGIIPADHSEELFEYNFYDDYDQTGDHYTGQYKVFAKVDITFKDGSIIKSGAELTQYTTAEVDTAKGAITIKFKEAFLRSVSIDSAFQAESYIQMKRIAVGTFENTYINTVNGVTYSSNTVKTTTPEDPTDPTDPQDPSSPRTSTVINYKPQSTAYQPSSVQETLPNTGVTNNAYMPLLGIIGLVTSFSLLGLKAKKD

[3] = biological target: B1; test: as above
[4] = biological target: T1, A3VP1^AgI/II; test: as above
[5] = biological target: T2, C123^AgI/II; test: as above
[6] = biological target: T3, iSRCR123; test: SPR, analyte over immobilized iSRCR123; quantity and unit not printed beside the number, told as 'nanomolar affinities'
[7] = biological target: salivary agglutinin (SAG) (human, UniProt Q9UGM3 20-2413); test: SPR, analyte over SAG immobilized on CM5 chip, 1:1 Langmuir model
Chain of salivary agglutinin (SAG) (Q9UGM3 whole entry): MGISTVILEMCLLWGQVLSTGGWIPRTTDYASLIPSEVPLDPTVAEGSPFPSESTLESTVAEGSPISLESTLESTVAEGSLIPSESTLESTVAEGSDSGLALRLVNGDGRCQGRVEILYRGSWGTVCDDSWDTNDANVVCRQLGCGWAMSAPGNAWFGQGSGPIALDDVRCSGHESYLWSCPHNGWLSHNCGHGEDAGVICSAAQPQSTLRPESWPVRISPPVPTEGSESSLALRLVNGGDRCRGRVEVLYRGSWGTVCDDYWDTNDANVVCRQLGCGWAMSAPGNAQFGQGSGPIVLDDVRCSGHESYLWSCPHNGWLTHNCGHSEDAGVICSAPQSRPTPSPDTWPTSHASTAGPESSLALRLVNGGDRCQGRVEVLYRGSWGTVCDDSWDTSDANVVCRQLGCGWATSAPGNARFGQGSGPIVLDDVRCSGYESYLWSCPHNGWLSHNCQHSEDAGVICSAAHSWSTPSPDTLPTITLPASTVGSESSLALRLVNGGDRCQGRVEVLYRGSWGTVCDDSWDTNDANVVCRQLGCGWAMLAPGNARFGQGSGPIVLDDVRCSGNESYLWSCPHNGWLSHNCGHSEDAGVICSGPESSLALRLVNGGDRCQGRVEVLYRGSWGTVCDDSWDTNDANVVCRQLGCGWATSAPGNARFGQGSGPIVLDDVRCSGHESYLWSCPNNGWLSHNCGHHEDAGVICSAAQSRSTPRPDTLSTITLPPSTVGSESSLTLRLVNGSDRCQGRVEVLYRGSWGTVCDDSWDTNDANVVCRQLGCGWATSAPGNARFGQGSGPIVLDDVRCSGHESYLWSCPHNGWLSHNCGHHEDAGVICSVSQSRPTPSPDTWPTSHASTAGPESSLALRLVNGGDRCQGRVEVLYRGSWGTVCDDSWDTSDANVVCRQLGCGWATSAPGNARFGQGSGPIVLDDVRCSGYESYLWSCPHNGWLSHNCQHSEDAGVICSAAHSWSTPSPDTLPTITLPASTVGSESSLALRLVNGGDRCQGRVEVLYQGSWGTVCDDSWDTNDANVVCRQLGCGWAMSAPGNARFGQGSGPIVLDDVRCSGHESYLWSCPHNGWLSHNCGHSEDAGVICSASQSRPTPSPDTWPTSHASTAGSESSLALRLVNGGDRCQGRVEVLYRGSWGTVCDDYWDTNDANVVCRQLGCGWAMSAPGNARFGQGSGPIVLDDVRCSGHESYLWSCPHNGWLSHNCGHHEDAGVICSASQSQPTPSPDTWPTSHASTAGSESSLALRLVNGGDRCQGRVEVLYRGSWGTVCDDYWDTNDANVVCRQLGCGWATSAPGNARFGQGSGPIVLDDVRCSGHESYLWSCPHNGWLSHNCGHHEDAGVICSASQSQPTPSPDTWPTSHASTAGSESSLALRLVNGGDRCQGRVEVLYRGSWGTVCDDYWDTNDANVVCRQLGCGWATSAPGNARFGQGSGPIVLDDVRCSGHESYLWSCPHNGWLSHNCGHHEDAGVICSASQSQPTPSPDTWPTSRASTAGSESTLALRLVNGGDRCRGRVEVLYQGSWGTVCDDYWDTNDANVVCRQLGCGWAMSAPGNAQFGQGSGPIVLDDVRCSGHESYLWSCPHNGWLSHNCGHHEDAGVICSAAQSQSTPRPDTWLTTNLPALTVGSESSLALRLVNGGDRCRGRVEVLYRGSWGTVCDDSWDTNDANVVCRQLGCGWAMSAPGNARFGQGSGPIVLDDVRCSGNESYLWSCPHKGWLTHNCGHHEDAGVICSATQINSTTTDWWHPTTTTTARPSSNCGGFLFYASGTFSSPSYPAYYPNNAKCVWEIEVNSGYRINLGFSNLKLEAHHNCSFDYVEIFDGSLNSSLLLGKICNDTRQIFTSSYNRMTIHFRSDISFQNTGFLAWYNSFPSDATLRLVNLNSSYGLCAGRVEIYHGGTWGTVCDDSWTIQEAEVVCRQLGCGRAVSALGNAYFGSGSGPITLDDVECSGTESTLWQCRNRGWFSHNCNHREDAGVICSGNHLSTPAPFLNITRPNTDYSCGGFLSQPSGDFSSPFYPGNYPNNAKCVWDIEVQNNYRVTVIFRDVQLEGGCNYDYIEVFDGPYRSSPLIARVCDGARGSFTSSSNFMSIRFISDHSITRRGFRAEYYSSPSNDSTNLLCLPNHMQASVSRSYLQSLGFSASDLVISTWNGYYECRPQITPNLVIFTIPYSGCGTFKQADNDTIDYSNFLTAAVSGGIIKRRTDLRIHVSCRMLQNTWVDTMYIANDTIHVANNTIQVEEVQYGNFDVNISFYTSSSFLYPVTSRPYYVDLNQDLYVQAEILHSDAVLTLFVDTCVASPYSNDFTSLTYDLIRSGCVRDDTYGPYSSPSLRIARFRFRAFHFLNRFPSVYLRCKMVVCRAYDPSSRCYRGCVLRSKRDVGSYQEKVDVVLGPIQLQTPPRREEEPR

[8] = biological target: T4, FL^AgI/II (S. mutans UA159 Antigen …); test: SPR, analyte over ligand deglycosylated on the CM5 chip, 1:1 Langmuir model
[9] = biological target: B1; test: as above
[10] = biological target: T1, A3VP1^AgI/II; test: as above
[11] = biological target: T2, C123^AgI/II; test: as above

Row | Binder | Ka [8] [M⁻¹] | Kd [8] [nM] | koff [8] [s⁻¹] | kon [8] [M⁻¹ s⁻¹] | Ka [9] [M⁻¹] | Kd [9] [nM] | koff [9] [s⁻¹] | kon [9] [M⁻¹ s⁻¹] | Ka [10] [M⁻¹] | Kd [10] [nM] | koff [10] [s⁻¹] | kon [10] [M⁻¹ s⁻¹] | Ka [11] [M⁻¹] | Kd [11] [nM] | koff [11] [s⁻¹] | kon [11] [M⁻¹ s⁻¹] | further results
1 | iSRCR1 (receptor, not shown: small tags and cut ends, domain: SRCR1; also called SRCRs; iSRCRs) not shown | – | – | – | – | – | – | – | – | – | – | – | – | – | – | – | – | Kd [1]: 5.68 nM; Ka [2]: 1.31e+08 M⁻¹; Kd [2]: 7.69 nM; koff [2]: 0.000976 s⁻¹; kon [2]: 127000 M⁻¹ s⁻¹; Ka [3]: 3.91e+06 M⁻¹; Kd [3]: 256 nM; koff [3]: 0.00237 s⁻¹; kon [3]: 9250 M⁻¹ s⁻¹; Ka [4]: 8.57e+06 M⁻¹; Kd [4]: 117 nM; koff [4]: 0.00327 s⁻¹; kon [4]: 28000 M⁻¹ s⁻¹; Ka [5]: 6.46e+06 M⁻¹; Kd [5]: 151 nM; koff [5]: 0.00232 s⁻¹; kon [5]: 15400 M⁻¹ s⁻¹; Kd [6]: 1.2 nM
2 | B1 | – | – | – | – | – | – | – | – | – | – | – | – | – | – | – | – | Ka [7]: 1.63e+08 M⁻¹; Kd [7]: 6.15 nM; koff [7]: 0.00197 s⁻¹; kon [7]: 320000 M⁻¹ s⁻¹
3 | iSRCR1 (Deglycosylated) (receptor, domain: SRCR1; also called deglycosylated iSRCR1) not shown | 865000 | 1160 | 0.0575 | 49700 | 7.97e+06 | 125 | 0.00104 | 8300 | 1.92e+06 | 520 | 0.00274 | 5270 | 48100 | 20800 | 0.0246 | 1180 | –
4 | iSRCR123 (Deglycosylated) (receptor, domain: SRCR123; also called deglycosylated iSRCR123) not shown | 6.82e+06 | 147 | 0.000464 | 3160 | 5.24e+06 | 191 | 0.00132 | 6920 | 1.22e+06 | 818 | 0.00333 | 4070 | 458000 | 2180 | 0.00658 | 3010 | –
